Assay results: patent CN116640216A

Target: CD19-CD22 CAR(CD19-CD22双靶点CAR-T细胞表面表达的CD19-CD22 scFv)
Assay: flow cytometry on CD19-CD22 CAR-T cells, positive control tube

Alexa Fluor®647荧光标记的抗鼠F(ab')2抗体(Jackson ImmunoResearch Laboratories，货号#115-605-072) (antibody)
CAR阳性百分率: 31.6%
